Among the data in article doi:10.1101/196097 are stoichiometry N and Kd values, retold here.

Assay [1] concerns the target Calcium-independent phospholipase A2β, short variant (SH-iPLA2β), wild type (Chinese hamster (cloned from CHO cells)). Briefly: AUC.
For assay [2], the target named is Fluorescein (FAM)-labeled calmodulin T34C (UniProt P0DP23). Briefly: fluorescence polarisation. On the technique in general: Polarisation of emitted light reports the rotation of a fluorescent probe.
In assay [3] the target is FAM-labeled synthetic peptide corresponding to the IQ motif of iPLA2β. The experiment in a line: fluorescence polarisation.
The target in assay [4] is FAM-labeled synthetic peptide corresponding to the 1-9-14 motif of iPLA2β. Briefly: fluorescence polarisation.

By stoichiometry N is commonly meant the number of molecules, sites or subunits per partner or assembly. What is called Kd is the free concentration of one partner at which half of the binding sites on the other are occupied at equilibrium, for simple one-to-one binding. Higher therefore signals lower affinity. Turning to “Calcium-independent phospholipase A2β, short variant (SH-iPLA2β), wild type (from UniProt A0A3L7I2I8 1-807) (enzyme)”, in assay [1], the stoichiometry N was 2. Further, the Kd in assay [2] was 0.112 µM.
As for “Calmodulin (from UniProt P0DP23 1-149) (natural protein)”, the Kd in assay [3] came to 5.9 µM; in assay [4], 2.5 µM.
As for “iPLA2β W695E mutant (from UniProt A0A3L7I2I8 1-807) (enzyme)”, in assay [2], the dissociation constant (Kd) was more than 1.4 µM.
